Square brackets hold non-standard residues; d marks the D form. Ends that are not written are not given here. pS = N[C@@H](COP(=O)(O)O)C(=O)O

The target in the experiment is T1, full-length mouse wild-type Keap1-6xHis (Kelch-like ECH-associated protein 1) (mouse, UniProt Q9Z2X8 1-624).
T1 construct: Keap1, mouse, full-length protein Met1-Cys624; also called full-length Keap1; Keap1 homodimer; not shown: 6xHis, C-terminal, kept
The experiment is described as follows: NMR titration; competition: preformed complex of 0.05 mM 13C/15N-Neh2 and 0.1 mM Keap1 (1:2) titrated with p62-KIR peptide (phosphorylated 0.25-5 mM, non-phosphorylated 1.0 and 5 mM); 20 mM Tris-HCl pH 8.0, 100 mM NaCl, 4 mM TCEP; read-out is recovery of Neh2 signals. The settings on record: both partners purified.

T1 sequence (Q9Z2X8 whole entry): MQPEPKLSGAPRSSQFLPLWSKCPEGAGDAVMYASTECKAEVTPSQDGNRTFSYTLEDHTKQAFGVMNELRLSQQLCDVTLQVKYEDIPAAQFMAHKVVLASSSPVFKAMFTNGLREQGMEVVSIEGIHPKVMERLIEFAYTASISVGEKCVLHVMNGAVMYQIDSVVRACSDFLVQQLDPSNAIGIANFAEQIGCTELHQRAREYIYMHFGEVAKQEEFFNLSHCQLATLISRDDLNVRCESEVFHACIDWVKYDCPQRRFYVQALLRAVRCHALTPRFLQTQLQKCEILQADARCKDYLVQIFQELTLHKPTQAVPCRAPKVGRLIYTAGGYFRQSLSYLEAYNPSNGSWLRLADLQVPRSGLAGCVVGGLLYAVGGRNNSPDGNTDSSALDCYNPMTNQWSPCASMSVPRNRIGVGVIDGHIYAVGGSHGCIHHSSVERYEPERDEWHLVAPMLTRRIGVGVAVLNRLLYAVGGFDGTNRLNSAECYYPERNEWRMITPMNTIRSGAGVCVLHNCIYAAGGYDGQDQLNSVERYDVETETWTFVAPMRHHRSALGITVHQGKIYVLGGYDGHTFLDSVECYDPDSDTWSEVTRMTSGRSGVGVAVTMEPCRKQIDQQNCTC

B1: phosphorylated p62-KIR peptide (peptide)
peptide: KEVDP[pS]TGELQSLQ
notes: also called P-p62-KIR; p62-pKIR peptide; source: bought: Toray Research Center
Regarding B1, the binding result is listed as “binds”.
